In article PMC11754754, “Structure and mechanism of biosynthesis of Streptococcus mutans cell wall polysaccharide” (Nature Communications, 2025):

Key:
[1] = tested on: O=c1ccn([C@@H]2O[C@H](CO[P@@](=O)(O)O[P@@](=O)(O)O[C@H]3O[C@H](CO)[C@@H](O)[C@H](O)[C@H]3O)[C@@H](O)[C@H]2O)c(=O)[nH]1; assay: radiometric [3H]Glc-lipid formation, E. coli membrane fraction; type: biochemical, Streptococcus mutans; conditions: labelled compound (UDP-[3H]Glc), co-substrate Und-P in CHAPS, 20 mM MgCl2, pH 7.4, 37 °C
Description: (§1) radiometric [3H]Glc-lipid formation, E. coli membrane fraction on SccN

[2] = tested on: CC(C)=CCC/C(C)=C/CC/C(C)=C/CC/C(C)=C\CC/C(C)=C\CC/C(C)=C\CC/C(C)=C\CC/C(C)=C\CC/C(C)=C\CC/C(C)=C\CC/C(C)=C\COP(=O)(O)O; assay: as above; type: biochemical, Streptococcus mutans; conditions: co-substrate UDP-[3H]Glc, Und-P dispersed in CHAPS, 20 mM MgCl2, pH 7.4, 37 °C
Description: as §1

[3] = tested on: O=c1ccn([C@@H]2O[C@H](CO[P@@](=O)(O)O[P@@](=O)(O)O[C@H]3O[C@H](CO)[C@@H](O)[C@H](O)[C@H]3O)[C@@H](O)[C@H]2O)c(=O)[nH]1; assay: cells, lysate or membranes; conditions: labelled compound (UDP-[3H]Glc), co-substrate Und-P in CHAPS, 20 mM MgCl2, pH 7.4, 37 °C
Description: (§2) radiometric [3H]Glc-lipid formation, E. coli membrane fraction on SccP

[4] = tested on: CC(C)=CCC/C(C)=C/CC/C(C)=C/CC/C(C)=C\CC/C(C)=C\CC/C(C)=C\CC/C(C)=C\CC/C(C)=C\CC/C(C)=C\CC/C(C)=C\CC/C(C)=C\COP(=O)(O)O; assay: cells, lysate or membranes; conditions: co-substrate UDP-[3H]Glc, Und-P dispersed in CHAPS, 20 mM MgCl2, pH 7.4, 37 °C
Description: as §2

Substance	Km [1]	Vmax [1]	Km [2]	Vmax [2]	Km [3]	Vmax [3]	Km [4]	Vmax [4]
SccN (Streptococcus mutans UA159)	1.61 µM	3.16 µmol/min/mg	5.85 µM	5.42 µmol/min/mg	–	–	–	–
SccP (Streptococcus mutans UA159)	–	–	–	–	2.50 µM	0.93 µmol/min/mg	2.56 µM	0.96 µmol/min/mg
